Consider 40 sequences from the nanobody polyreactivity screen of Harvey et al. (2022).

The data set in a line: yeast display, Sf9 membrane polyspecificity reagent, FACS + sequencing; frameworks hold sequencing errors. Summed up: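 Synthetic nanobody libraries on Saccharomyces cerevisiae BJ5465 were galactose-induced for 36–48 hours, stained 1 hour at 4 °C with 10% biotinylated, detergent-solubilized Sf9 membrane reagent and enriched on streptavidin microbeads. FACS then separated cells into low and high (top ~1%) gates by anti-HA (expression) and streptavidin (reagent binding) fluorescence. Genes were colony-PCR amplified, MiSeq 2 × 250 sequenced and CDR-length filtered. A clone's polyreactivity label is that of its gate of origin.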
Consider “QVQLVESGLGLVQEGGCLRVSCAASGSIFSHYAMGWDSQAPGKDREVVAAITGGGITYYADSVKGRFTISRDNAKNTVYLQMNSLIPEDTAVYYWATDSLIFTIFDYSGQGTQVTVSS”, for which the “polyreactivity (PSR sort gate)” value is “low polyreactivity”.
Turning to “QVQLVESGPGLVQAGVSLRLSCAASGSIFAYYAMGWYRQAPGKERELVAAISSRGGNTYYADSVKGRFTISRHYAKNSVYLQMNSLKPEDTAVYYCAADYQYSYGEYDYWGQGTQVTVSS”, the “polyreactivity (PSR sort gate)” value is recorded as “high polyreactivity”.
As for “QVQLVESGQGLVQAGGSLRLSCAASGFTFWGYTMGWYRQAPGKERELVAGITLSGGSTYYADSVKGRFTISRDNAKNTVYLEMNSLKPEDTAVYYCAAKPYQVSSYDFSLRDYWGQGTQVTVSS”, the “polyreactivity (PSR sort gate)” value is recorded as “low polyreactivity”.
The same measure for “QVQLVESGRGIVQAGGSLRLSCAASGSIFLHNAMGWYRQAPGKETELVAAITGSGGYTYYADSVKGRFTISRDNPKNTVYIQMNSRQPEDTAVYYCAACSRSRYYRYVYYQYVTMDYWGQGTQETVSS”: “high polyreactivity”; for “QVQLVESGRGLFQAGGSLRLSCAPSGIIIVNYAMGWYRQAPGKERELVAAITTSGGSTYYADSVKGRFTISRDHAKNTVYLQMNSLKPEDTAVYDCAKKSSLFKHVVRYDYWGQGTQVTVSS”: “low polyreactivity”; for “QVQLVESGRGLVHAGGSHRISCAASGRTFYYYAMGWYRQAPGKERELVAAITRGGSTNYADSVKGRFTISRDNAKITVYLQMNSLKPEDTAVYYCAQPWFYQNRGYDYWGQGTQVTVSS”: “low polyreactivity”.
On to “QVQLVESGRGLVQAAGSLRLSCASSGSTYFGNTMVWYRQAPGKERELVATITRRGGTTYYADSVKGRFTISRDNAKNSVFLQMNSLKPEDTAVYYCAKRGPYTKYDYWGQGTQVTVSS”, for which the “polyreactivity (PSR sort gate)” value was “low polyreactivity”.
The same measure for “QVQLVESGRGLVQAGGSLRISCAASGSTFGYYAMGWYRQAPGKERELVAAITSTGRTKYADSVKGRFTISRDNAKNTVYLQMNSLKPEDTAVYYCAADIWGQGTQVTVSS”: “high polyreactivity”.
In the case of “QVQLVESGRGLVQAGGSLRISCAPSGITFGRYVMGWYRQAPGKERELVAVISRGGSTNYADSVKGRFTIARDNAKNTDYLQMNSLKPEDSAVYYCAADEWIVHDGYYSSYYYWGQGTQVTVSS” it was “low polyreactivity”; in that of “QVQLVESGRGLVQAGGSLRLICAASGSIFFYYAMGWYRQAPGKERELVAVITSGGSTNYADSVKGRFTISRDNAKNTVYLQMNSLKPEDTAVYYCNADGYGYFTVREFLDYDYWGQGTQVTVSS”, “low polyreactivity”; in that of “QVQLVESGRGLVQAGGSLRLSCAACGRIFYRYTMGSYRQAPGKERELVAAITRGGNTYYADSVKGRFTISRDNANYTVYLQMNSLKPEDTAVYYCAKKAPSDRNNYWGQGTQVTVSS”, “high polyreactivity”.
The same measure for “QVQLVESGRGLVQAGGSLRLSCAASAVSFISYAMGWYRQAPGKERELVAAISRGGSSTYYADSVKGRFTISRDNAKNTVYLQMNSLKPEDTAVYYCNKAYHRRDSEFGYSGQGTQVTVSS”: “high polyreactivity”.
Regarding “QVQLVESGRGLVQAGGSLRLSCAASGFIFAYYAMGWYRQAPGKERELVAAITRSGGGTKYADSVKGRFTISRDNAKNTVYLHMNSLKPEDTAVYYCAARWYRQLRDLDYWGQGTQVTVSS”, the “polyreactivity (PSR sort gate)” value is given as “high polyreactivity”.
“QVQLVESGRGLVQAGGSLRLSCAASGFTFGYYAMGWYRQAPGKERELVAAISASGASTYYADSVKGRFTISRDNAKNTVYLQMTSLKPEDTAVYYCAARPGQLTSPVTRTRYNYWGQGTQVTVSS”: the “polyreactivity (PSR sort gate)” value is listed as “low polyreactivity”.
In the case of “QVQLVESGRGLVQAGGSLRLSCAASGFTFYYYANGWYRQAPGKERELVAAISIGGSTYYADSVKGRFTISRDNAKNTVYLQMNCLKPEDTAVYYCNVVFTYWPPGTARYDYWGQGTQVTVSS” it was “high polyreactivity”.
For “QVQLVESGRGLVQAGGSLRLSCAASGFTLWIYAKGWYRQAPGKESELVAAITWSTGSTYYADSVKGRFTISRDNAKNTVYLLMNSLKPEDTAVYYCPAEFHWWYAGYDYGYWGQGTQVTVSS”, the “polyreactivity (PSR sort gate)” value is listed as “low polyreactivity”.
The same measure for “QVQLVESGRGLVQAGGSLRLSCAASGFTQPANGMGWYRQAPGIERELVAAISFIAGSTYYADSVKGRFTISRDNAKNTVYLQMNSLKPEDTAVYYCATLFPPSTIYDYWGQGTQVTVSS”: “low polyreactivity”; for “QVQLVESGRGLVQAGGSLRLSCAASGIIFGGYSMGWYRQAPGKERELVAAISGIGSRTYYADSVKGRFTISRDNAKNTVYLQMNSLKPEDTAVYYCNADQVYGYNYWGQGTQVTVSS”: “high polyreactivity”.
The same measure for “QVQLVESGRGLVQAGGSLRLSCAASGIIFYENAMGWYRQAPGKERELVADITQSGGSTYYADSVKGRFTISRDNAKNTVYLQMNSLKPEDTAVYYCAADGYDPYGGLYDYWGQGTQVTVSS”: “low polyreactivity”; for “QVQLVESGRGLVQAGGSLRLSCAASGRIFRYYAMGWYRQAPGKERELVATITDGGSTSYADSVKGRFTISRDNAKNTVYLQMNSLKPEDTAVYYCARDPLPSYWKVWSRPTFDYWGQGTQVTVSS”: “low polyreactivity”.
The same measure for “QVQLVESGRGLVQAGGSLRLSCAASGRIFTHYAMGWYRQAPGKERELVAAITSSSGSTYYADSVKGRFTISRDNAKNTVYLPMISLKPEDTAVYYCAASRYGKNGKFHYWGQGTQVTVSS”: “high polyreactivity”.
In the case of “QVQLVESGRGLVQAGGSLRLSCAASGRIFVSNVMGWYRQAPGKERELVATITIGGITYYADSVKGRFTISRDNAKNTVYLQMNSLKPEDTAVYYCAADRRRFSPYGLYIHPGFDYWGQGTQVTVSS”, the “polyreactivity (PSR sort gate)” value was “low polyreactivity”.
In the case of “QVQLVESGRGLVQAGGSLRLSCAASGRTFDPYAMGWYRQAPGKERELVAAITSGDDTYYADSVKGRFTISRDYAKNTVYLQMNSLKPEHTAVYYCAADSFTPDYYYHDYWGQGTQVRVSS” it was “low polyreactivity”.
In the case of “QVQLVESGRGLVQAGGSLRLSCAASGRTFVYYAMGWYRQAPGKERELVAAISRSGSTYYADSVKGRFTISRDNAKNTVYLQMNSLKPEDTAVYYCARPGGPDRTSSPYPYPYGYWGQGTQVTVSS” it was “low polyreactivity”; in that of “QVQLVESGRGLVQAGGSLRLSCAASGSIFKNYAMGWYRQAPGKERELVAAITRGTYYADSVKGRFTISRDNAKNTVYLQMNSLKPEDTAVYDCYREYWGRGYYRVRGEYDYWGQGTQVTVSS”, “low polyreactivity”; in that of “QVQLVESGRGLVQAGGSLRLSCAASGSIFSYYAMGWYIQAPGKERELVAAITVRGGSTYYADSVKGRFTISRDNAKNTVYLQMNSLKPEDTAVYYCAAVPGYTHLWGGPFDYWGQGTQVTVSS”, “low polyreactivity”.
The same measure for “QVQLVESGRGLVQAGGSLRLSCAASGSILTYYTMGWYRQAPGKERELVAAITRRGGSTYYADSVKGRFTISRDNAKNTVYLQMNRLKPEDTAVYYCNRVLSYHRHKLGMGYWGQGTHVTVSS”: “high polyreactivity”.
For “QVQLVESGRGLVQAGGSLRLSCAASGSTFAGYVMGWYRQAPGKERELVAAISGRGGNTYYADSVKGRFTISRDNAKNTVYIQINSLKPADTAVYYCAANLSRRYGYWGQGTQVTVSS”, the “polyreactivity (PSR sort gate)” value is “high polyreactivity”.
In the case of “QVQLVESGRGLVQAGGSLRLSCAASGSTFWNNGMGWYRQAPGKERELVAAINWSGDSTYYADSVKGRFTISRDNAKNTVYLQMNSLKPEDTAVYYCAAGYYTYSRRSSFFVAYGYWGQGTQVTVSS” it was “low polyreactivity”.
On to “QVQLVESGRGLVQAGGSLRLSCADSGRTFGYYGMGWYRQAPGKEREFVAAITRSGGSTYYADSVKGRFTISRDHAKNTVYLQMNSLKPEDTAVYYCAAAHLFTRSRPYDYWGQGTQVTVSS”, for which the “polyreactivity (PSR sort gate)” value is “high polyreactivity”.
For “QVQLVESGRGLVQAGGSLRLSCAPSGFTFNVNAMGWYRQAPGKERELVAAISSSGTRTYYADSVKGRFTISRDNAKNTFYLQMNSLKPEDTAVYYCGASGQAYSGDRMYYWGQGTQVTVSS”, the “polyreactivity (PSR sort gate)” value was “high polyreactivity”.
The same measure for “QVQLVESGRGLVQAGGSLRLSCASSGSIKQNAMGWNRQAPGKETELVAAIDWDGSSTYYADSVKGRFTISRDNAKNTVYLQMNSLKPEDTAVYYCAKGWYRIKRNDYWGQGTQVTVSS”: “low polyreactivity”; for “QVQLVESGRGLVQAGGSLRLSCDASGFIFPWYAMGWYRQAPGKERELVAAITSGGSTTYADSVKGRFTISRDNAKNTVYLQMNSLKPEDTAVYYCAAAYPWGDYGVSDYDYWGQGTQVTVSS”: “high polyreactivity”; for “QVQLVESGRGLVQAGRTLRLSCAASGFIFQWYTMGWYRQAPGKDRELVADIRSGGDTNYADSVKGRFTISRDTAKNSVYLQMYSLKPEDTAVYYCATETFFPLRRASYGRKLGYWGQGTQVTVSS”: “low polyreactivity”.
Take “QVQLVESGRGLVQAGVSLRLSCAASGSIFEQYAMGWYRQAPGKERELVAAITISGGGTFYADSVKGRFTISRDNAKNTVYLQMNSLKPEDTAVYYCAKRGYYFWSRKYGYWGQGTQVTVSS”: the “polyreactivity (PSR sort gate)” value is recorded as “low polyreactivity”.
For the sequence “QVQLVESGRGLVQEGGSLRLSCAASGRNVVFYTMGWNRQEPVKERELVATISIRGSTYYADSVKGRFTISRDNAKNTVYLKMNSLKPEDTAVYYCAAVYYSYYSFSYNYWGQGTVVTVSS”, the “polyreactivity (PSR sort gate)” value was “low polyreactivity”.
In the case of “QVQLVESGVGIGQAGGSLRLTCAASGRTVSKYGKGWYRHAPGKEREMVAAISGRGGSTYYADSVKGRFTISRDHAKNTVYLQMNSLNPEDNAVYYCAQDLSYRPHGHGDGHYDFWGQGTQVTVSS” it was “low polyreactivity”.
In the case of “QVQLVESGVGIVQAGGSLRLSCAASGSTYGYNAMGWYRQAPGKESEFVARIRSSGSTTYADSVKRRFTISRDNAMNTVYLLMNSLNPEDNAVYYWAARRYFYLVVYYSWGQCTQVTVSS” it was “high polyreactivity”; in that of “QVQLVESGVGIVQAGGSLRLSSAPSGRTFTWYAMGRTRQAPGKERELVAAITNGGRTYADSVKGRFTISRDNAKNTVYLQMNSLKPEDTAVYYCAKVQYRGYLPHQRGRERDYDYWGQGTQVTVSS”, “low polyreactivity”.
The same measure for “QVQLVESGVGIVQAGGSLRVSCAASGRIFYYYAMGWYRHAPGKERELVAVINSGDSTNYADSVKGRFTISRDNAKNSVYFQMNSLKPEDTAVYYCAKGVISDLDYWADYDYWGQGTQVSVSS”: “low polyreactivity”.
